Reference: patent US20220175921A1 (published 2022)

Assays:
[1] = molecular target: T1, human GITR, membrane bound (on activated human T cells or on 3A9-hGITR cells) (UniProt Q9Y5U5 26-241); experiment: FACS
T1 chain: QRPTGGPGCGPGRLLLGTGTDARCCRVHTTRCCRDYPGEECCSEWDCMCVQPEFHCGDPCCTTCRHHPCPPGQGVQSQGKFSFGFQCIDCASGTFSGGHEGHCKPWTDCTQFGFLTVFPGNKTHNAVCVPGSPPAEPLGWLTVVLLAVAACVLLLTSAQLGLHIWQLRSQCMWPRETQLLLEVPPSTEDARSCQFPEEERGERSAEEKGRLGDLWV

[2] = molecular target: T2, cynomolgus GITR, membrane bound (on activated cynomolgus T cells); experiment: FACS
T2 chain: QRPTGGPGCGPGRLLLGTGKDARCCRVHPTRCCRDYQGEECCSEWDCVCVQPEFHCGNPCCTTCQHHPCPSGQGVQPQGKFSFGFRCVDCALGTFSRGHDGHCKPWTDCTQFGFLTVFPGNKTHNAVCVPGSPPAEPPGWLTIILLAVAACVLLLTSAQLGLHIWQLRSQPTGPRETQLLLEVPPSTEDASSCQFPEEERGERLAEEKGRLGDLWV

B1: anti-GITR.g2 (antibody)
chain 1: QVQLVESGGGVVQPGRSLRLSCAASGFTFSSYGMHWVRQAPGKGLEWVAVIWYEGSNKYYADSVKGRFTISRDNSKNTLYLQMNSLRAEDTAVYYCARGGSMVRGDYYYGMDVWGQGTTVTVSSASTKGPSVFPLAPCSRSTSESTAALGCLVKDYFPEPVTVSWNSGALTSGVHTFPAVLQSSGLYSLSSVVTVPSSNFGTQTYTCNVDHKPSNTKVDKTVERKCCVECPPCPAPPVAGPSVFLFPPKPKDTLMISRTPEVTCVVVDVSHEDPEVQFNWYVDGVEVHNAKTKPREEQFNSTFRVVSVLTVVHQDWLNGKEYKCKVSNKGLPAPIEKTISKTKGQPREPQVYTLPPSREEMTKNQVSLTCLVKGFYPSDIAVEWESNGQPENNYKTTPPMLDSDGSFFLYSKLTVDKSRWQQGNVFSCSVMHEALHNHYTQKSLSLSPGK
chain 2: not shown
[1]
  EC50: 277 pM

B2: anti-GITR.g2.g1.1f (antibody)
chain 1: QVQLVESGGGVVQPGRSLRLSCAASGFTFSSYGMHWVRQAPGKGLEWVAVIWYEGSNKYYADSVKGRFTISRDNSKNTLYLQMNSLRAEDTAVYYCARGGSMVRGDYYYGMDVWGQGTTVTVSSASTKGPSVFPLAPCSRSTSESTAALGCLVKDYFPEPVTVSWNSGALTSGVHTFPAVLQSSGLYSLSSVVTVPSSNFGTQTYTCNVDHKPSNTKVDKTVERKCCVECPPCPAPPVAGPSVFLFPPKPKDTLMISRTPEVTCVVVDVSHEDPEVKFNWYVDGVEVHNAKTKPREEQYNSTYRVVSVLTVLHQDWLNGKEYKCKVSNKALPSSIEKTISKAKGQPREPQVYTLPPSREEMTKNQVSLTCLVKGFYPSDIAVEWESNGQPENNYKTTPPVLDSDGSFFLYSKLTVDKSRWQQGNVFSCSVMHEALHNHYTQKSLSLSPG
chain 2: not shown
[1]
  EC50: 163 pM

B3: 3C3 (antibody, V domains shown)
VH: QVQLQQWGAGLLKPSETLSLTCAVYGGSFSGYYWTWIRQPPGKGLEWIGKINHSGNTNYNPSLKSRVTISVDTSKNQFSLKLSSVTAADTAVYYCARLGAFDAFDIWGQGTMVTVSS
VL: DIQMTQSPSSLSASVGDRVTITCRASQGISSWLAWYQQKPEKAPKSLIYAASSLQSGVPSRFSGSGSGTDFTLTISSLQPEDFATYYCQQYNSYPYTFGQGTKLEIKR
[2]
  EC50: 142000 pM
